Reference: article PMC9633773, “Discovering cell-active BCL6 inhibitors: effectively combining biochemical HTS with multiple biophysical techniques, X-ray crystallography and cell-based assays” (Scientific Reports, 2022)

Molecular target: BCL6 BTB domain (BCL6 5-129, tag removed by HRV-3C protease) (human) (UniProt P41182)
Assay: fluorescence polarisation; competition: 10 nM BCOR-AF633, 3 µM BCL6 BTB, unlabelled peptide varied; 20 mM Hepes/NaOH pH 8.0, 150 mM NaCl, 0.5 mM TCEP, 0.05% Tween 20, 1-2% DMSO; 2 h at room temperature

% inhibition at 980 µM: 16%
Substance: WVIP tetrapeptide (Ac-WVIP-NH2)
